Source: patent publication US20240116985A1, “STAPLED PEPTIDES AND METHODS THEREOF” (priority 2020, published 2024)
Starred links: 1 amine or outer side, 2 acyl side, 3 side chain; linkers in the order of their positions; H or OH if unused. Positions of bridges follow the written chain, without caps; N, C: chain ends. Non-standard residues stand in square brackets, D forms with d. Primed or numbered codes have the meaning given here. *: point of attachment. B5(10) = 2-amino-2-(pent-4-en-1-yl)hept-6-enoic acid, bis(4-pentenyl)glycine, stitching residue bearing both staples, C=CCCCC(CCCC=C)(N[*:1])C(=O)[*:2]; PyrS2″ = (S)-3-amino-1-((pent-4-en-1-yloxy)carbonyl)pyrrolidine-3-carboxylic acid (stapling residue), C=CCCCOC(=O)N1CC[C@@](N[*:1])(C(=O)[*:2])C1; B5(16) = 2-amino-2-(pent-4-en-1-yl)hept-6-enoic acid = 2,2-bis(4-pentenyl)glycine (stitching residue), C=CCCCC(CCCC=C)(N[*:1])C(=O)[*:2]; B5(5) = 2,2-bis(4-pentenyl)glycine, 2-amino-2-(pent-4-en-1-yl)hept-6-enoic acid (stitching residue), C=CCCCC(CCCC=C)(N[*:1])C(=O)[*:2]; PyrS2 = (S)-3-amino-1-((pent-4-en-1-yloxy)carbonyl)pyrrolidine-3-carboxylic acid, C=CCCCOC(=O)N1CC[C@@](N[*:1])(C(=O)[*:2])C1; B5(12) = 2-amino-2-(pent-4-en-1-yl)hept-6-enoic acid (two olefin side chains), C=CCCCC(CCCC=C)(N[*:1])C(=O)[*:2]; B5(3) = 2,2-bis(4-pentenyl)glycine (stitching residue), C=CCCCC(CCCC=C)(N[*:1])C(=O)[*:2]; BzAm2Allyl = N-terminal 2-allylbenzoic acid (acyl cap), C=CCc1ccccc1C(=O)*; 4pentenyl = N-terminal pent-4-enoic acid (acyl cap), C=CCCC(=O)*; 5hexenyl = N-terminal hex-5-enoic acid (acyl cap), C=CCCCC(=O)*; 3butenyl = N-terminal but-3-enoic acid (acyl cap), C=CCC(=O)*; 5hexenyl″ = N-terminal hex-5-enoic acid cap, C=CCCCC(=O)*; Phe(3-COOH) = N[C@@H](Cc1cccc(C(=O)O)c1)C(=O)O; Phe(2-Cl) = N[C@@H](Cc1ccccc1Cl)C(=O)O; 1Nal = N[C@@H](Cc1cccc2ccccc12)C(=O)O; Bta = N[C@@H](Cc1csc2ccccc12)C(=O)O; Lys(iPr) = CC(C)NCCCC[C@H](N)C(=O)O; αAllylPro = C=CC[C@@]1(C(=O)O)CCCN1; tBuAla = CC(C)(C)C[C@H](N)C(=O)O; 3Thi = N[C@@H](Cc1ccsc1)C(=O)O; Cha = N[C@@H](CC1CCCCC1)C(=O)O; αMeP = C[C@@]1(C(=O)O)CCCN1; iPr = CC(C)*

B1: I-1277 (peptide)
peptide: Ac-[αAllylPro]D[tBuAla][B5(5)]DD[Lys(iPr)]AFL[PyrS2][Phe(2-Cl)][Bta]L-NH2
modifications: staple 1-4, 4-11; not fully specified; printed as Ac-PL3-Asp-Npg-B5-Asp-Asp-iPrLys-Ala-Phe-Leu-PyrS2-2C1F-BztA-Leu-NH2
B2: I-1275 (peptide)
peptide: Ac-[αAllylPro]D[tBuAla][B5(5)]DD[Lys(iPr)]AFL[PyrS2″][Phe(2-Cl)][Bta]Q-NH2
modifications: staple 1-4; staple 4-11 (inferred); not fully specified; printed as Ac-PL3-Asp-Npg-B5-Asp-Asp-iPrLys-Ala-Phe-Leu-PyrS2-2C1F-BztA-Gln-NH2
B3: I-1278 (peptide)
peptide: Ac-[αAllylPro]D[tBuAla][B5(5)]DDAAF[Lys(iPr)][PyrS2][Phe(2-Cl)][Bta]Q-NH2
modifications: staple 1-4, 4-11; not fully specified; printed as Ac-PL3-Asp-Npg-B5-Asp-Asp-Ala-Ala-Phe-iPrLys-PyrS2-2C1F-BztA-Gln-NH2
B4: I-1276 (peptide)
peptide: Ac-[αAllylPro]D[tBuAla][B5(5)]DD[Lys(iPr)]AFL[PyrS2″][Phe(2-Cl)][Bta]T-NH2
modifications: staple 1-4; staple 4-11 (inferred); not fully specified; printed as Ac-PL3-Asp-Npg-B5-Asp-Asp-iPrLys-Ala-Phe-Leu-PyrS2-2C1F-BztA-Thr-NH2
B5: I-1273 (peptide)
peptide: Ac-[αAllylPro]D[tBuAla][B5(5)]DD[Lys(iPr)]AFT[PyrS2″][Phe(2-Cl)][Bta]T-NH2
modifications: staple 1-4; staple 4-11 (inferred); not fully specified; printed as Ac-PL3-Asp-Npg-B5-Asp-Asp-iPrLys-Ala-Phe-Thr-PyrS2-2C1F-BztA-Thr-NH2
B6: I-1269 (peptide)
peptide: Ac-[αAllylPro]D[tBuAla][B5(3)]DTAAFT[PyrS2″][1Nal][Bta]S-NH2
modifications: staple 1-4; staple 4-11 (inferred); not fully specified; printed as Ac-PL3-Asp-Npg-B5-Asp-Thr-Ala-Ala-Phe-Thr-PyrS2-1NapA-BztA-Ser-NH2
B7: I-2607 (peptide)
peptide: BzAm2Allyl-XD[B5(3)]AD[Phe(3-COOH)]AAF[PyrS2]L[3Thi][Bta]Q-NH2
modifications: staple 3-10; staple (positions not given here); not fully specified (residue 1, bridges); printed as BzAm2Allyl-MePro-Asp-B5-Ala-Asp-3COOHF-Ala-Ala-Phe-PyrS2-Leu-3Thi-BztA-Gln-NH2; also: -CH=CH- in each staple reduced to -CH2-CH2-
B8: I-2601 (peptide)
peptide: 4pentenyl-XD[B5(3)]ADDAAF[PyrS2]L[3Thi][Bta]Q-NH2
modifications: staple 3-10; staple (positions not given here); not fully specified (residue 1, bridges); printed as 4pentenyl-MePro-Asp-B5-Ala-Asp-Asp-Ala-Ala-Phe-PyrS2-Leu-3Thi-BztA-Gln-NH2; also: -CH=CH- in each staple reduced to -CH2-CH2-
B9: I-2605 (peptide)
peptide: 4pentenyl-XD[B5(3)]AD[Phe(3-COOH)]AAF[PyrS2]L[3Thi][Bta]Q-NH2
modifications: staple 3-10; staple (positions not given here); not fully specified (residue 1, bridges); printed as 4pentenyl-MePro-Asp-B5-Ala-Asp-3COOHF-Ala-Ala-Phe-PyrS2-Leu-3Thi-BztA-Gln-NH2; also: -CH=CH- in each staple reduced to -CH2-CH2-
B10: I-2603 (peptide)
peptide: 4pentenyl-XD[B5(3)]AD[Phe(3-COOH)]AAF[PyrS2]L[3Thi][Bta]Q-NH2
modifications: staple 3-10; staple (positions not given here); not fully specified (residue 1, bridges); printed as 4pentenyl-MePro-Asp-B5-Ala-Asp-3COOHF-Ala-Ala-Phe-PyrS2-Leu-3Thi-BztA-Gln-NH2
B11: I-2604 (peptide)
peptide: 5hexenyl-XD[B5(3)]AD[Phe(3-COOH)]AAF[PyrS2]L[3Thi][Bta]Q-NH2
modifications: staple 3-10; staple (positions not given here); not fully specified (residue 1, bridges); printed as 5hexenyl-MePro-Asp-B5-Ala-Asp-3COOHF-Ala-Ala-Phe-PyrS2-Leu-3Thi-BztA-Gln-NH2; also: -CH=CH- in each staple reduced to -CH2-CH2-
B12: I-2609 (peptide)
peptide: 5hexenyl-XD[B5(3)]ADDAAF[PyrS2]L[3Thi][Bta]Q-NH2
modifications: staple 3-10; staple (positions not given here); not fully specified (residue 1, bridges); printed as 5hexenyl-MePro-Asp-B5-Ala-Asp-Asp-Ala-Ala-Phe-PyrS2-Leu-3Thi-BztA-Gln-NH2; also: -CH=CH- in each staple reduced to -CH2-CH2-
B13: I-2606 (peptide)
peptide: BzAm2Allyl-XD[B5(3)]ADDAAF[PyrS2]L[3Thi][Bta]Q-NH2
modifications: staple 3-10; staple (positions not given here); not fully specified (residue 1, bridges); printed as BzAm2Allyl-MePro-Asp-B5-Ala-Asp-Asp-Ala-Ala-Phe-PyrS2-Leu-3Thi-BztA-Gln-NH2; also: -CH=CH- in each staple reduced to -CH2-CH2-
B14: I-2602 (peptide)
peptide: 5hexenyl-XD[B5(3)]AD[Phe(3-COOH)]AAF[PyrS2]L[3Thi][Bta]Q-NH2
modifications: staple 3-10; staple (positions not given here); not fully specified (residue 1, bridges); printed as 5hexenyl-MePro-Asp-B5-Ala-Asp-3COOHF-Ala-Ala-Phe-PyrS2-Leu-3Thi-BztA-Gln-NH2
B15: I-2608 (peptide)
peptide: 3butenyl-XD[B5(3)]ADDAAF[PyrS2]L[3Thi][Bta]Q-NH2
modifications: staple 3-10; staple (positions not given here); not fully specified (residue 1, bridges); printed as 3butenyl-MePro-Asp-B5-Ala-Asp-Asp-Ala-Ala-Phe-PyrS2-Leu-3Thi-BztA-Gln-NH2; also: -CH=CH- in each staple reduced to -CH2-CH2-
B16: I-2598 (peptide)
peptide: {5hexenyl″}-[αMeP]D[B5(3)]ADDAAF[PyrS2]L[3Thi][Bta]Q-NH2
modifications: staple 3-10; staple (positions not given here); not fully specified (bridges); printed as 5hexenyl-MePro-Asp-B5-Ala-Asp-Asp-Ala-Ala-Phe-PyrS2-Leu-3Thi-BztA-Gln-NH2
B17: I-2600 (peptide)
peptide: 5hexenyl-XD[B5(3)]ADDAAF[PyrS2]L[3Thi][Bta]Q-NH2
modifications: staple 3-10; staple (positions not given here); not fully specified (residue 1, bridges); printed as 5hexenyl-MePro-Asp-B5-Ala-Asp-Asp-Ala-Ala-Phe-PyrS2-Leu-3Thi-BztA-Gln-NH2; also: -CH=CH- in each staple reduced to -CH2-CH2-
B18: I-1070 (peptide)
peptide: Ac-[αAllylPro]D[tBuAla][B5(3)]DEAAFL[PyrS2″][Phe(2-Cl)][Bta]T-NH2
modifications: staple 1-4, 4-11; not fully specified; printed as Ac-PL3-Asp-Npg-B5-Asp-Glu-Ala-Ala-Phe-Leu-PyrS2-2C1F-BztA-Thr-NH2

The binders below were run against full-length beta-Catenin (Uniprot ID P35222) (Homo sapiens (Human)) (UniProt P35222) (assay: fluorescence polarization competition; full-length beta-catenin + 5FAM-TCF4(10-53) probe).
Target sequence in this assay (P35222 whole entry, one chain of several): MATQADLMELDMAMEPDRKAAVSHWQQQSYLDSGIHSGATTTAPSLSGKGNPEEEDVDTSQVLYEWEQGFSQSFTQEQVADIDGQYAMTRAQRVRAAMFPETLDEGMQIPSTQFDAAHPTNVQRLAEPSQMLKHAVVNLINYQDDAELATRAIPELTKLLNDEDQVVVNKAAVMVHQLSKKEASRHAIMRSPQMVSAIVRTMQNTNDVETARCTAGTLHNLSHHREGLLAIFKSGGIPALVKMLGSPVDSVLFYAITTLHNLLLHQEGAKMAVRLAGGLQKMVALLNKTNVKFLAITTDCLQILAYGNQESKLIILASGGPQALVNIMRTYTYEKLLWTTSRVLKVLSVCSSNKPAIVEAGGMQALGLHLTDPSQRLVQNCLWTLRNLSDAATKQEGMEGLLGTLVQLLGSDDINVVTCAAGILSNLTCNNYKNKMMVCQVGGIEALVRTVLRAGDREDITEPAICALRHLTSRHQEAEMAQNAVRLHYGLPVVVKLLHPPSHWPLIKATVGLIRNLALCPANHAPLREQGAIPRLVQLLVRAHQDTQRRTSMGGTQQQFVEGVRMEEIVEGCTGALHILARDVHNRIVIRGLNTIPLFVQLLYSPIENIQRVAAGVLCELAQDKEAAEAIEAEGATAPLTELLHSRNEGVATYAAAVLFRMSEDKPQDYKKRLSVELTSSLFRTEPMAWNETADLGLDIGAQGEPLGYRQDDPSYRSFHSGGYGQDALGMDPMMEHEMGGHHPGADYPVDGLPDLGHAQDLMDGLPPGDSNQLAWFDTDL

EC50 [nM]	Binder
17	B1
9	B2
10	B3
10	B4
9	B5
173	B6
12	Ac-[αAllylPro]D[tBuAla][B5(5)]DDAAFK(iPr)[PyrS2][Phe(2-Cl)][Bta]T-NH2 (staple 1-4, 4-11) [I-1279]

The binders below were run against full-length beta-Catenin (Uniprot ID P35222) (Homo sapiens (Human)) (UniProt P35222) (assay: fluorescence polarization competition; full-length beta-catenin, competitor 5FAM-TCF4 10-53 probe).
Target sequence in this assay (P35222 2-781 limits assumed): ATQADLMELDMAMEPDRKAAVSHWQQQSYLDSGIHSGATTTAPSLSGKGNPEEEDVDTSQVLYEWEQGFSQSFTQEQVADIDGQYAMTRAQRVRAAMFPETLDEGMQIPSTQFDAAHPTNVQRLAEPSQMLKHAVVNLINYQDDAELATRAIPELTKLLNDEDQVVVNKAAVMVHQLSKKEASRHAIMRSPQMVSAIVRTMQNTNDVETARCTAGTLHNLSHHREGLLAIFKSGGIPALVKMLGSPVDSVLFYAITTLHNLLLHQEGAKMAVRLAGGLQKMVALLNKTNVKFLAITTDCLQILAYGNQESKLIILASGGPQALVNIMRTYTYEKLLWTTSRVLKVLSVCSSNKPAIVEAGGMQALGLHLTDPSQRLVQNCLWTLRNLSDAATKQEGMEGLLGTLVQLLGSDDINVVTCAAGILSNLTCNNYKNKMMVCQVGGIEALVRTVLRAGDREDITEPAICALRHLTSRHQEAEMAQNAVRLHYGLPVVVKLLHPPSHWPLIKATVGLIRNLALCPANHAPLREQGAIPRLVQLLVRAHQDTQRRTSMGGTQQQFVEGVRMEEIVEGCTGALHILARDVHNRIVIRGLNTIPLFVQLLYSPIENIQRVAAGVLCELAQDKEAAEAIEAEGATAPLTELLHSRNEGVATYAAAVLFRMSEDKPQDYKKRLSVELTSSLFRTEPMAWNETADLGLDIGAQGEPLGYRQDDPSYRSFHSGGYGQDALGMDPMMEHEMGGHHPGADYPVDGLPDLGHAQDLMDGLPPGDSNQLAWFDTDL

IC50 [nM]	Binder
74	Ac-[αAllylPro]DN[B5(12)]DDAAFL[PyrS2″][3Thi][Bta]L-NH2 (staple 1-4, 4-11) [I-1413]

Each binder was assayed against full-length beta-Catenin (Uniprot ID P35222) (Homo sapiens (Human)) (UniProt P35222) (assay: fluorescence polarization competition against 5FAM-TCF4(10-53) on full-length beta-catenin).
Target sequence in this assay (P35222 whole entry, one chain of several): as the sequence (P35222 whole entry, one chain of several) above

IC50 [nM]	Binder
17	B1
9	B2
10	B3
10	B4
9	B5
173	B6
12	Ac-[αAllylPro]D[tBuAla][B5(5)]DDAAFK(iPr)[PyrS2][Phe(2-Cl)][Bta]T-NH2 (staple 1-4, 4-11) [I-1279]

These binders were tested against full-length beta-Catenin (Uniprot ID P35222) (Homo sapiens (Human)) (UniProt P35222) (assay: fluorescence polarization competition against 5FAM TCF4 10-53 probe).
Target sequence in this assay (P35222 whole entry, one chain of several): as above

IC50 [nM]	Binder
904	B7
592	B8
608	B9
767	B10
1120	B11
2650	B12
734	B13
8220	B14
251	B15
1350	B16
923	B17

Each binder was assayed against full-length beta-Catenin (Uniprot ID P35222) (Homo sapiens (Human)) (UniProt P35222) (assay: fluorescence polarization competition; 10 nM full-length beta-catenin + 10 nM 5FAM-TCF4 10-53 as competitor probe).
Target sequence in this assay (P35222 2-781 limits assumed): as the sequence (P35222 2-781 limits assumed) above

EC50 [nM]	Binder
5	Ac-[αAllylPro]D[Cha][B5(16)]DDAAFT[PyrS2″][Phe(2-Cl)][Bta]Q-NH2 (staple 1-4, 4-11) [I-1042]

These binders were tested against full-length beta-Catenin (Uniprot ID P35222) (Homo sapiens (Human)) (UniProt P35222) (assay: cell-based or functional assay).
Target sequence in this assay (P35222 whole entry, one chain of several): as the sequence (P35222 whole entry, one chain of several) above

DLD1 4% Abs IC50 [nM]	Binder
> 20000	B7
> 20000	B13

Each binder was assayed against Bcat-Halo (UniProt P35222) (assay: NanoBRET Abs IC50, HEK293 cells, Bcat-Halo/TCF4-Luc; competitor TCF4-Luc).
Bcat-Halo, sequence (P35222 whole entry): as the sequence (P35222 whole entry, one chain of several) above

IC50 [nM]	Binder
> 20000	B1
27800	B2
18000	B3
> 20000	B4
> 20000	B5
17600	B6
22900	Ac-[αAllylPro]D[tBuAla][B5(5)]DDAAFK(iPr)[PyrS2][Phe(2-Cl)][Bta]T-NH2 (staple 1-4, 4-11) [I-1279]

The binders below were run against beta-catenin (Homo sapiens (Human)) (UniProt P35222) (assay: fluorescence polarization competition; full-length beta-catenin with 5FAM-TCF4(10-53) probe as competitor).
beta-catenin (Homo sapiens (Human)), sequence (P35222 whole entry): as the sequence (P35222 whole entry, one chain of several) above

EC50 [nM]	Binder
74	Ac-[αAllylPro]DN[B5(12)]DDAAFL[PyrS2″][3Thi][Bta]L-NH2 (staple 1-4, 4-11) [I-1413]

Each binder was assayed against full-length beta-Catenin (Uniprot ID P35222) (Homo sapiens (Human)) (UniProt P35222) (assay: fluorescence polarization competition; full-length beta-catenin, competitor 5FAM-TCF4(10-53) probe).
Target sequence in this assay (P35222 whole entry, one chain of several): as above

EC50 [nM]	Binder
920	Ac-[αAllylPro]D[tBuAla][B5(3)]DDAAFL[PyrS2″][Phe(2-Cl)][Bta]T-NH2 (staple 1-4, 4-11; also: staple stereoisomer: later eluting HPLC peak) [I-1069]
1020	B18

These binders were tested against full-length beta-Catenin (Uniprot ID P35222) (Homo sapiens (Human)) (UniProt P35222) (assay: fluorescence polarization competition; full-length beta-catenin with 5FAM-TCF4(10-53) probe, peptide titrated).
Target sequence in this assay (P35222 whole entry, one chain of several): as above

IC50 [nM]	Binder
920	Ac-[αAllylPro]D[tBuAla][B5(3)]DDAAFL[PyrS2″][Phe(2-Cl)][Bta]T-NH2 (staple 1-4, 4-11; also: staple stereoisomer: later eluting HPLC peak) [I-1069]
1020	B18
5	Ac-[αAllylPro]D[Cha][B5(16)]DDAAFT[PyrS2″][Phe(2-Cl)][Bta]Q-NH2 (staple 1-4, 4-11) [I-1042]
